“And” between values parts separate entries of the source, which are not always exact repeats. Equal entries are not always repeated.
Assays:
[1] = target: T1, hTregL1-his tryptic peptide 499-531 (human); experiment: affinity-MS: tryptic antigen peptides eluted from antibody-CNBr column, LC-MS
T1 sequence (peptide): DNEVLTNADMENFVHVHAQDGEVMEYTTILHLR

[2] = target: T2, hTregL1-his tryptic peptide 498-531 (human); experiment: as above
T2 sequence (peptide): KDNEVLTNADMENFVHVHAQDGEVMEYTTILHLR

[3] = target: T3, hTregL1-his tryptic peptide 499-529 (human); experiment: as above
T3 sequence (peptide): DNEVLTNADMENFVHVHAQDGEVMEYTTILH

[4] = target: T4, hTregL1-his chymotryptic peptide 624-636 (human); experiment: affinity-MS: chymotryptic antigen peptides eluted from antibody-CNBr column, LC-MS
T4 sequence (peptide): FITDVKIDDAGVY

[5] = target: T5, hTregL1-his chymotryptic peptide 270-280 (human); experiment: as above
T5 sequence (peptide): SFCQKLHELVL

[6] = target: T6, hTregL1-his chymotryptic peptide 472-492 (human); experiment: as above
T6 sequence (peptide): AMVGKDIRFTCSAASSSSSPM

[7] = target: T7, hTregL1-his chymotryptic peptide 430-446 (human); experiment: as above
T7 sequence (peptide): VTATCAHPESLKGQSIF

[8] = target: T8, hTregL1-his chymotryptic peptide 113-134 (human); experiment: as above
T8 sequence (peptide, N-glycan at 116(N)): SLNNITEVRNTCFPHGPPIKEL

[9] = target: T9, hTregL1-his chymotryptic peptide 637-653 (human); experiment: as above
T9 sequence (peptide, N-glycan at 650(N)): SCTAQNSAGSISANATL

[10] = target: T10, hTregL1-his chymotryptic peptide 585-598 (human); experiment: as above
T10 sequence (peptide): ECAATGHPNPQIAW

[11] = target: T11, hTregL1-his chymotryptic peptide 327-344 (human); experiment: as above
T11 sequence (peptide): DLDHNEISGTIEDTSGAF

[12] = target: T12, hTregL1-his chymotryptic peptide 447-471 (human); experiment: as above
T12 sequence (peptide): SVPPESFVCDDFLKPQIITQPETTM

[13] = target: T13, hTregL1-his chymotryptic peptide 728-744 (human); experiment: as above
T13 sequence (peptide): TCEMSNTLGTERAHSQL

[14] = target: T14, hTregL1-his chymotryptic peptide 402-416 (human); experiment: as above
T14 sequence (peptide): HISSDSFLCDCQLKW

[15] = target: T15, hTregL1-his chymotryptic peptide 427-440 (human); experiment: as above
T15 sequence (peptide): QAFVTATCAHPESL

[16] = target: T16, hTregL1-his chymotryptic peptide 536-553 (human); experiment: as above
T16 sequence (peptide): GHEGRYQCVITNHFGSTY

[17] = target: T17, hTregL1-his chymotryptic peptide 529-535 (human); experiment: as above
T17 sequence (peptide): HLRQVTF

[18] = target: T18, hTregL1-his chymotryptic peptide 430-440 (human); experiment: as above
T18 sequence (peptide): VTATCAHPESL

B1: GTC310-01-hlgG1 (antibody, human IgG1, kappa, V domains shown)
VH: EVQLLESGGGLVQPGGSLRLSCAASGFTFSNYAMSWVRQAPGKGLEWVSVISHGGGSTYYADSVKGRFTISRDNSKNTLYLQMNSLRAEDTAVYYCARVISNCHLGVCYYSNGMDVWGQGTLVTVSS
VL: QLVLTQPPSVSAAPGQRVSISCSGSSSNIGDNYVSWYQQVPGSAPKLLIYDNNKRPSGIPDRFSASKSGTSATLGITGLQTGDEADYYCATWDGSLSAGRVFGGGTKLTVLR
MS Area [1]: 1.9e+07 (2×) and 6.9e+06
MS Area [2]: 7.66e+06 and 4.64e+06 and 4.1e+06
MS Area [3]: 1.21e+06 and 726000 and 442000
MS Area [4]: 473000 and 399000
MS Area [5]: 459000 and 335000
MS Area [6]: 407000 and 325000
MS Area [7]: 1e+06 and 705000
MS Area [8]: 556000 and 544000
MS Area [9]: 334000 and 207000
MS Area [10]: 766000 and 374000
MS Area [11]: 283000 and 298000
MS Area [12]: 1.62e+06 and 1.32e+06
MS Area [13]: 335000 and 736000
MS Area [14]: 1.67e+07 and 7.24e+06
MS Area [15]: 1.05e+06 and 554000
MS Area [16]: 497000 and 295000
MS Area [17]: 378000 and 312000
MS Area [18]: 1.59e+07 and 1.18e+07
